Results on 1 molecule are retold here after US20240294623A1 (SCHOLAR ROCK, published 2024).

Assay [1] addresses T1, hLTBP3-proTGFβ1 (human, UniProt Q9NS15 44-1303; P01137 30-390, limits assumed).
T1 construct: LLC as m1; Same id used for the cell-made complex in reporter assays; also called human LTBP3-proTGFβ1 complex; LTBP3-ProTGFb1
Kind of assay: SPR (Biacore), Fab; affinity relative to Ref. The protocol: (§1) Surface plasmon resonance (SPR) was used to measure binding kinetics using a BIACORE® system. […] Experiments were carried out with eight types of LLCs, namely, hLTBP1-proTGFβ1, mLTBP1-proTGFβ1, hLTBP3-proTGFβ1, mLTBP3-proTGFβ1, hGARP-proTGFβ1, mGARP-proTGFβ1, hLRRC33-proTGFβ1 and mLRRC33-proTGFβ1.
(§2) In vitro binding kinetics (on/off rates) were measured in Biacore-based assays and affinities were determined against all four known LLCs using both human and murine counterparts for each. Based on the association rate and dissociation rate, KD was calculated for each. In addition, relative affinities, as compared to the reference antibody as a benchmark, were calculated and expressed as “fold difference” relative to the reference antibody.
(§3) A BIACORE® system was employed to determine the monovalent binding affinity and the kinetic parameters for antigen binding of test antibodies. The binding kinetics were evaluated by surface plasmon resonance using Biacore 8K (GE Healthcare). A Biotin CAP sensor chip was used to capture the biotinylated antigens. […] Multi-cycle kinetics was employed where each analyte concentration was injected in a separate cycle and the sensor chip surface was regenerated after each cycle. All the assays were carried out in freshly prepared 1×HBS-EP+buffer (10 mM HEPES, 150 mM NaCl, 3 mM EDTA, 0.05% Tween20, pH 7.4). Data for all the analyte concentrations for each interaction were fit globally to a 1:1 binding model to obtain the kinetic parameters. The Sensorgram for 0 nM analyte concentration was used as reference.
On the technique in general: In SPR one partner is held on a chip, and binding of the other changes the refractive index at the surface.

For assay [2], the target named is T2, hLTBP1-proTGFβ1 (human, UniProt Q14766 347-1721; P01137 30-390, limits assumed).
T2 construct: Large latent complex (LLC): proTGFβ1 dimer disulfide-linked to one presenting molecule; recombinant, purified, biotinylated in BLI/SPR; The same id is used for the complex made by transfected cells in the reporter assays; also called human LTBP1-proTGFβ1 complex; LTBP1-ProTGFb1
T2 sequence (Q14766 347-1721 limits assumed, chain 1 of 2): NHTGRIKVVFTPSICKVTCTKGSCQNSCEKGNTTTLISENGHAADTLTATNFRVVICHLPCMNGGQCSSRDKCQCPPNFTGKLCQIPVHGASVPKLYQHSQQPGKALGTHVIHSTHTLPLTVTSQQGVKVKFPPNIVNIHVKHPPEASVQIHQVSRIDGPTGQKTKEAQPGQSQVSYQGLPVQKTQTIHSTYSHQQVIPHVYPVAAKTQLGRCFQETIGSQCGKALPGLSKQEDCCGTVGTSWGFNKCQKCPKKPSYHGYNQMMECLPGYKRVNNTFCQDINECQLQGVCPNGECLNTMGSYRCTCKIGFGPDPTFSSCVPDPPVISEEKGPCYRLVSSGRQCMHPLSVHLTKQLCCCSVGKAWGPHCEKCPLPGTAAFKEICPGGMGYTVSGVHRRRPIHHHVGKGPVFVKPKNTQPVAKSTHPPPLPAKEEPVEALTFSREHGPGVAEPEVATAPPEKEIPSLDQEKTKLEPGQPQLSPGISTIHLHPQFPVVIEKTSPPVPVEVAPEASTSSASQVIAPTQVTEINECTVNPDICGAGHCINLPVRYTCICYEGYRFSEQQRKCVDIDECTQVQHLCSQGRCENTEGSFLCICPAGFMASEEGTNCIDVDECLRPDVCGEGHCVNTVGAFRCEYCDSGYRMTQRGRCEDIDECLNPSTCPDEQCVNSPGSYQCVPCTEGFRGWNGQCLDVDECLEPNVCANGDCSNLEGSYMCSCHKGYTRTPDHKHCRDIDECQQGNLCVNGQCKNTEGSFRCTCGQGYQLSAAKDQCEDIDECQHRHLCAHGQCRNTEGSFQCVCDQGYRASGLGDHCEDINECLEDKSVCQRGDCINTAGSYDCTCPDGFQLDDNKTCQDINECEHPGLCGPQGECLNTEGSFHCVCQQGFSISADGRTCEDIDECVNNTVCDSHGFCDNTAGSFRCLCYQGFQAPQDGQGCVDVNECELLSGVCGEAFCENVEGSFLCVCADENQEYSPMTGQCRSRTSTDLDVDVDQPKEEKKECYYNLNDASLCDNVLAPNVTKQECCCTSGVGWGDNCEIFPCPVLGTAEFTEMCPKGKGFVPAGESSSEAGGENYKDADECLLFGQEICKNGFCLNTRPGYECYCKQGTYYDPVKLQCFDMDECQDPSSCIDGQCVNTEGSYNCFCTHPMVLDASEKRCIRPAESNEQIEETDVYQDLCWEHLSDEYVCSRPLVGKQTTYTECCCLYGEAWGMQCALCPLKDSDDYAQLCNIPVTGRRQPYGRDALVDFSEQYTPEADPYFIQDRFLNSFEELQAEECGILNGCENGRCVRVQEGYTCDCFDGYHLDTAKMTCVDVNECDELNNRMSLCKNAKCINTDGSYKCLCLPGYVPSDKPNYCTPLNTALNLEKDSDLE
T2 sequence (P01137 30-390 limits assumed, chain 2 of 2): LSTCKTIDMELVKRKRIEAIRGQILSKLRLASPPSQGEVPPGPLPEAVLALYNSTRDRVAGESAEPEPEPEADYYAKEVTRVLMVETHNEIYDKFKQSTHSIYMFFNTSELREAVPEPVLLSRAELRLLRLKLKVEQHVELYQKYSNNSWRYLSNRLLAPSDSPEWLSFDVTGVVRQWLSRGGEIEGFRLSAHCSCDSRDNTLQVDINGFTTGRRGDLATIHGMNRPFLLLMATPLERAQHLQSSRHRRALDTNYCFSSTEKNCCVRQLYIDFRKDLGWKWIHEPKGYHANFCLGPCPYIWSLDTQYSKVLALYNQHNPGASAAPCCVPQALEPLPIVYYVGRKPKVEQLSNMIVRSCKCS
Kind of assay: SPR (Biacore), Fab; affinity relative to Ref. The protocol: as §1, §2, §3

The target in assay [3] is T3, mLTBP3-proTGFβ1 (mouse).
T3 construct: Murine LLC; also called murine LTBP3-proTGFβ1 complex
Kind of assay: SPR (Biacore), Fab; affinity relative to Ref. The protocol: as §1, §2, §3

Assay [4] addresses T4, hGARP-proTGFβ1 (human, UniProt Q14392 18-627; P01137 30-390, limits assumed).
T4 construct: LLC as m1; Same id used for the cell-surface complex in reporter assays; also called human GARP-proTGFβ1 complex; GARP-ProTGFb1
Kind of assay: SPR (Biacore), Fab; affinity relative to Ref. The protocol:
as §1, §2, §3

The target of assay [5] is T5, mLTBP1-proTGFβ1 (mouse).
T5 construct: Murine LLC; also called murine LTBP1-proTGFβ1 complex
T5 sequence (Q8CG19 339-1712): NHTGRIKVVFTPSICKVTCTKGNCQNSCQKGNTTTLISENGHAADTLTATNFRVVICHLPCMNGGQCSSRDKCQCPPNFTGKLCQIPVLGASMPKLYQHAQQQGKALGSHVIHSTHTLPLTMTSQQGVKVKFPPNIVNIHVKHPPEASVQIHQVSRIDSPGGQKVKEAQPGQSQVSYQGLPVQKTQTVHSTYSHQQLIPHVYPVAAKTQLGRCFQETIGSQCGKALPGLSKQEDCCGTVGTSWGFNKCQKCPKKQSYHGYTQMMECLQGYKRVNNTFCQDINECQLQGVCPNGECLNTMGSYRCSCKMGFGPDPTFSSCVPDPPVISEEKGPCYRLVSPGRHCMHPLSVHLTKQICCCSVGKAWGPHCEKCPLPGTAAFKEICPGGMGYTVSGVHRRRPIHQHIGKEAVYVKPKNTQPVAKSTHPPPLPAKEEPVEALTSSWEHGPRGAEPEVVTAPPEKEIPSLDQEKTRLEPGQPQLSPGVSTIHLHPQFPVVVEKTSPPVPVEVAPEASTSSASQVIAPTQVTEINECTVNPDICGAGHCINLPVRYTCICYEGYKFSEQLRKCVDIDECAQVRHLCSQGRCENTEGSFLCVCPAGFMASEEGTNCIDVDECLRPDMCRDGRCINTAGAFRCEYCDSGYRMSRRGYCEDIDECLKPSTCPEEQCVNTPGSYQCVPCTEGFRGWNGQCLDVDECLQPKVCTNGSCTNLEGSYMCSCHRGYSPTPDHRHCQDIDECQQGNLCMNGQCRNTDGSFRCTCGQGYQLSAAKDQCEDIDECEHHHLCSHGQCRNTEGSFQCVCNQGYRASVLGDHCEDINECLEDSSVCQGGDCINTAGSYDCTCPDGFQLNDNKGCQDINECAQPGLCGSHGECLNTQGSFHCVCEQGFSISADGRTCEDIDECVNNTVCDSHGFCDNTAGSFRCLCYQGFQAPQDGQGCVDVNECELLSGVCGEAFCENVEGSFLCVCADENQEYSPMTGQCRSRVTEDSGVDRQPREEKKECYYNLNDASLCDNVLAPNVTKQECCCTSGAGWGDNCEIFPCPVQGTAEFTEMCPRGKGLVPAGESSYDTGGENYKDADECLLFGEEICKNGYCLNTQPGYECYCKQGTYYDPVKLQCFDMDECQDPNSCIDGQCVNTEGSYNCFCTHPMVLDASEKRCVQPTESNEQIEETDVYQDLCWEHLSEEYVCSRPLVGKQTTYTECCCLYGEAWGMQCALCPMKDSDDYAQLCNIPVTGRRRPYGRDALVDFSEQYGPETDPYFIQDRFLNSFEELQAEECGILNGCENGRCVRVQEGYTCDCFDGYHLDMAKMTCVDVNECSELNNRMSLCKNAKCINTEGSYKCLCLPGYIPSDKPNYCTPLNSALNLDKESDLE
Kind of assay: SPR (Biacore), Fab; affinity relative to Ref. The protocol:
as §1, §2, §3

In assay [6] the target is endogenous LTBP-proTGFβ1 of human LN229 cells (human, UniProt P01137 30-390). Kind of assay: cell-based or functional assay.
Chain of endogenous LTBP-proTGFβ1 of human LN229 cells (P01137 30-390): as the sequence (P01137 30-390 limits assumed, chain 2 of 2) above
The target in assay [7] is mLRRC33-proTGFβ1 (murine, UniProt Q8BMT4 20-651). Kind of assay: SPR (Biacore), Fab; affinity relative to Ref.
The target of assay [8] is T1, hLTBP3-proTGFβ1. Kind of assay: BLI (Octet), Fab in solution, biotinylated antigen immobilised. The protocol:
(§4) The table below exemplifies binding kinetics of the listed antibodies (e.g., Fabs) obtained by OCTET®-based binding assays. The experiments were conducted with immobilized, biotinylated antigen and Fab fragments (e.g., test antibodies) in solution.
Background: BLI is a label-free optical method that tracks binding on a fibre tip over time.

The target of assay [9] is T2, hLTBP1-proTGFβ1. The assay is described as above. The protocol:
as §4

In assay [10] the target is T4, hGARP-proTGFβ1. Described as above. The protocol: as §4

T1 sequence (Q9NS15 44-1303 limits assumed, chain 1 of 2): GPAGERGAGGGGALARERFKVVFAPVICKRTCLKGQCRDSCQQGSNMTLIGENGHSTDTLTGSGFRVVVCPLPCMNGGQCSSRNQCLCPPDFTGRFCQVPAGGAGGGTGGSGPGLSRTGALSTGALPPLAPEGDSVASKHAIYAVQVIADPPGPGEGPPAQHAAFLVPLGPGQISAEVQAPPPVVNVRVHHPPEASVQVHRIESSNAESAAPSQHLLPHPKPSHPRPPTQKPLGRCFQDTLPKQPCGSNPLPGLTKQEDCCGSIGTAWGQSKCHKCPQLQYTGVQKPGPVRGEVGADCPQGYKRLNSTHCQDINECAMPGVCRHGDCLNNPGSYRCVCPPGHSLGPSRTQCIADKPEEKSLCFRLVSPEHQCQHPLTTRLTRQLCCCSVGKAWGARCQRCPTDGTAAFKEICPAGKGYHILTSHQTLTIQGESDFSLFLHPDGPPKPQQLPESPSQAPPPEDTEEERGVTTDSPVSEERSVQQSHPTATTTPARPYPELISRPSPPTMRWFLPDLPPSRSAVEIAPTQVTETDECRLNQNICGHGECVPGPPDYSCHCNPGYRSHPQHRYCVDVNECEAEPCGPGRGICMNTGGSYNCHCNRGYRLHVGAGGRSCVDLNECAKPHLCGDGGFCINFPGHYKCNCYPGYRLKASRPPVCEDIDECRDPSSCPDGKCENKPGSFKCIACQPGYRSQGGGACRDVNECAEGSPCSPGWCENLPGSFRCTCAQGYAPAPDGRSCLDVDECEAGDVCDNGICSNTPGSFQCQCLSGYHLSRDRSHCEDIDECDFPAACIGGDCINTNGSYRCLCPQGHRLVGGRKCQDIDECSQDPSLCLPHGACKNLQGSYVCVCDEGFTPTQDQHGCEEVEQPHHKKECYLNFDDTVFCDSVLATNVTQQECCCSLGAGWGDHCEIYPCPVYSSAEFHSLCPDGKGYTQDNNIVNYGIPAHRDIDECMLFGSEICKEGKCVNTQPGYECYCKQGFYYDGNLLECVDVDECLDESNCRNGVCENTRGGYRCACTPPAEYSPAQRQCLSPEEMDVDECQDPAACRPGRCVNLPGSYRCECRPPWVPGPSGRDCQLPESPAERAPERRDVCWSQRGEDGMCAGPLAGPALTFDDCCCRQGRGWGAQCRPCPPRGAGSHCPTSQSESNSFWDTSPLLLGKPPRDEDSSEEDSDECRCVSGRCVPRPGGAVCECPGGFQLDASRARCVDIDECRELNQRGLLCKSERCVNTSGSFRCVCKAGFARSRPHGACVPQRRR
T1 sequence (P01137 30-390 limits assumed, chain 2 of 2): as the sequence (P01137 30-390 limits assumed, chain 2 of 2) above
T4 sequence (Q14392 18-627 limits assumed, chain 1 of 2): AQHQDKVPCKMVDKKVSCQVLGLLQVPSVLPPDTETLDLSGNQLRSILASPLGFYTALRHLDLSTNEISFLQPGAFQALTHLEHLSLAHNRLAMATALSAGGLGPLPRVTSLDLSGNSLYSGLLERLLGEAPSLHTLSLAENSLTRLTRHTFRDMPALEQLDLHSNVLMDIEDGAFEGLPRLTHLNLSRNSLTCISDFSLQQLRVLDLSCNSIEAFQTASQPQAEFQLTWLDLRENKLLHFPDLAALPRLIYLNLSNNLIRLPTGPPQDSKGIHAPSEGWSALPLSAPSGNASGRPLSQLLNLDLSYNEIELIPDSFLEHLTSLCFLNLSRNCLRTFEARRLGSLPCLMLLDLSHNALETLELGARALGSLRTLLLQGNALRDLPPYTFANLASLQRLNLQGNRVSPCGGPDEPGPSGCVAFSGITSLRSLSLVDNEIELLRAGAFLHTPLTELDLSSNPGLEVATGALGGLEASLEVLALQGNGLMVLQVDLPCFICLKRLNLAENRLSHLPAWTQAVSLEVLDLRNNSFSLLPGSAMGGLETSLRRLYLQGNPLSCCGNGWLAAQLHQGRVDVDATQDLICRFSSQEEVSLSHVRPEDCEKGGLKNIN
T4 sequence (P01137 30-390 limits assumed, chain 2 of 2): as the sequence (P01137 30-390 limits assumed, chain 2 of 2) above

B1: Ab46 Fab (Fab, V domains shown)
VH: EVQLLESGGGLVQPGGSLRLSCAASGFTFADYAMTWVRQAPGKGLEWVSAISGSGAATYFADSVKGRFTISRDNSKNTLYLQMNSLRAEDTAVYYCARVSSGHWDYDYWGQGTLVTVSS
VL: DIQLTQSPSSLSASVGDRVTITCRASQSISSYLNWYQQKPGKAPKLLIYAASGLESGVPSRFSGSGSGTDFTLTISSLQPEDFATYYCQQTYGVPLTFGGGTKVEIK
notes: Fab fragment
As for B1, the Fold difference in [1] worked out at 72 fold; in assay [2] it was 134 fold; in [3], 91 fold; in [4], 53 fold; in assay [5] it was 123 fold; in assay [7], 95 fold. Further, the “fAb IC50” value in assay [6] was 0.723 nM. Besides, the off-rate constant (koff) in assay [8] was found to be 0.000438 s⁻¹; in assay [9] it was 4.98e-05 s⁻¹; in assay [10], 0.00029 s⁻¹. The figures for the association rate constant (kon) in assay [8], in assay [9] and in assay [10] were 619000 M⁻¹ s⁻¹, 703000 M⁻¹ s⁻¹ and 703000 M⁻¹ s⁻¹, respectively.

Usually koff stands for the first-order rate constant of dissociation. A high value points to a short-lived complex. Broadly, the kon is the second-order rate constant of association. A high value points to faster complex formation.
